In patent US20190023782A1 (SHANGHAI JUNSHI BIOSCIENCES, published 2019):

What was measured:
[1] = target: T1, rh-PD-1 recombinant protein (human, UniProt Q15116 25-170, limits assumed); assay: ELISA, rh-PD-1 coated at 1 ug/ml, antibody at 1 ug/ml
T1 construct: also called human-derived PD-1; PD-1 protein
Procedure: The next day, solution was removed from the wells and the wells were washed three times with a washing buffer (PBS+0.5% TWEEN). PBS solution containing 3% BSA was added to the wells to block for 20 minutes. After washing three times with the washing buffer, 100 ul of each antibody clone was added at 1 ug/ml and incubated at room temperature for 1 hour. After three washes with the washing buffer, HRP cross-linked goat anti mouse antibody (Jackson Immunoresearch) was diluted in the washing buffer 1: 0000, and added to the sample wells and incubated at room temperature for 1 hour. After three washes with the washing buffer, 50 ul TMB (tetramethyl benzidine) substrate solution was added to develop the color. The color reaction was terminated after the reaction was continued for 10 minutes at room temperature by adding 25 ul of 0.5M sulfuric acid solution to the reaction mixture. The absorbance was then measured at 450 nm.

[2] = target: T1, rh-PD-1 recombinant protein; assay: ELISA on PD-1 protein
[3] = target: T1, rh-PD-1 recombinant protein; assay: ELISA, PD-1 coated at 1 ug/ml, goat anti-human HRP detection
Procedure: (§1) 1 ug /ml of human-derived PD-1, Macaca fascicularis PD-1, and mouse-derived PD-1 (Sinobiological) in the carbonate buffer solution (0.05 M PH9) were prepared and used to coat the wells of the 96-well flat-bottom plates at 4° C. overnight. The next day, solution was removed from the wells and the wells were washed three times with a washing buffer. PBS solution containing 3% BSA was added to block the wells for 20 minutes. […] The mixture was incubated at room temperature for 1 hour and then washed three times with a washing buffer. A HRP conjugated goat anti human antibody (Jackson Immunoresearch) was first diluted to 1: 10000 with the washing buffer and then added to the wells to incubate at room temperature for 1 hour. After washing three times with the washing buffer, 50 ul TMB substrate solution was added to the wells to develop the color. After 10 minutes at room temperature, the color development reaction was terminated with 25 ul 0.5M sulfuric acid solution and the absorbance was read at 450 nm.

Macaca fascicularis PD-1 = target: T2, Macaca fascicularis PD-1 (Macaca fascicularis); assay: as above
T2 construct: also called cyno PD-1
T2 chain: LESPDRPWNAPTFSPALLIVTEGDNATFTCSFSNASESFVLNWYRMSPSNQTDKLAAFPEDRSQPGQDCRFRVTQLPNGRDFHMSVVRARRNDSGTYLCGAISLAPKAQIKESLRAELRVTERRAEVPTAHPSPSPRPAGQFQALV
Procedure: as §1

T1 sequence (Q15116 25-170 limits assumed): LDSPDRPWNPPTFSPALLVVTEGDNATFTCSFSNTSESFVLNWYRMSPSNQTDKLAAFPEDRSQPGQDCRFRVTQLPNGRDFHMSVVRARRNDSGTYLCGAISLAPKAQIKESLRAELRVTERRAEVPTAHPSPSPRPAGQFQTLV

| Binder | EC50 [2] [nM] | also measured |
| --- | --- | --- |
| Clone 11 (antibody, V domains shown, Mouse hybridoma antibody; also called antibody candidate Clone 11) VH: QVTLKESGPGILQPSQTLSLTCSFSGFSLSTFGMGVGWIRQPSGKGLEWLAHIWWDDDKYYNPALKSRLTISKNTSKNQVFLKIANVDTEDTATYYCARIEERFRWYFDVWGTGTTVTVSS VL: RAGWTQESALTTSPGETVTLTCRSSTGAITTSNYANWVQEKPDHLFTGLIGGTNNRAPGVPARFSGSLIGDKAALTITGAQTEDEAIYFCALWYSNHWVFGGGTKLTVL |  | binding result [1]: binds |
| H1L1 (antibody, V domains shown, also called original antibody 1 (heavy chain 1, light chain 1)) VH: QGQLQQSGAELVRPGASVTLTCKASGYTFTDYEMHWVKQTPIHGLEWIGVIESETGGTAYNQKFKGKAKLTADKSSSTAYMELRSLTSEDSAVYYCTREGITTVATTYYWYFDVWGTGTTVTVSS VL: DVLMTQTPLSLPVSLGDQASISCRSSQSIVHSNGNTYLEWYLQKPGQSPELLIYKVYNRFSGVPDRFSGSGSGTDFTLKISRVEAEDLGVYYCFQGSHVPFTFGSGTKLEIK | 0.338 |  |
| H10L10 (antibody, V domains shown, also called original antibody 10 (heavy chain 10, light chain 10)) VH: QVQLQQSGAELVRPGASVTLSCKASGYTFTDYEMHWVKQTPVHGLEWIGAIDPETGGAAYNQKFKGKAILTADKSSSTAYMELRSLTSEDSAVYYCTREGITTSVVTYYWYFDVWGTGTTVTVSS VL: DVLMTQTPLSLPVSLGDQASISCRSSQSIVHSNGNTYLEWYLQKPGQSPKLLIYKVSNRFSGVPDRFSGSGSGTDFTLRISRVEPEDLGVYYCFQGSHVPLTFGSGTKLEIK | 0.426 |  |
| H1L10 (antibody, V domains shown, also called recombinant antibody H1L10 (heavy chain 1, light chain 10)) VH: QGQLQQSGAELVRPGASVTLTCKASGYTFTDYEMHWVKQTPIHGLEWIGVIESETGGTAYNQKFKGKAKLTADKSSSTAYMELRSLTSEDSAVYYCTREGITTVATTYYWYFDVWGTGTTVTVSS VL: DVLMTQTPLSLPVSLGDQASISCRSSQSIVHSNGNTYLEWYLQKPGQSPKLLIYKVSNRFSGVPDRFSGSGSGTDFTLRISRVEPEDLGVYYCFQGSHVPLTFGSGTKLEIK | 0.27 |  |
| H10L1 (antibody, V domains shown, also called recombinant antibody H10L1 (heavy chain 10, light chain 1)) VH: QVQLQQSGAELVRPGASVTLSCKASGYTFTDYEMHWVKQTPVHGLEWIGAIDPETGGAAYNQKFKGKAILTADKSSSTAYMELRSLTSEDSAVYYCTREGITTSVVTYYWYFDVWGTGTTVTVSS VL: DVLMTQTPLSLPVSLGDQASISCRSSQSIVHSNGNTYLEWYLQKPGQSPELLIYKVYNRFSGVPDRFSGSGSGTDFTLKISRVEAEDLGVYYCFQGSHVPFTFGSGTKLEIK | 0.528 |  |
| humanized antibody Clone 41 (antibody, V domains shown, Humanized antibody; also called hu41) VH: QGQLVQSGAEVKKPGASVKVSCKASGYTFTDYEMHWVRQAPGQGLEWMGVIESETGGTAYNQKFQGRVTLTADKSSSTAYMELSSLRSEDTAVYYCTREGITTVATTYYWYFDVWGQGTLVTVSS VL: DVVMTQSPLSLPVTLGQPASISCRSSQSIVHSNGNTYLEWYLQKPGQSPQLLIYKVSNRFSGVPDRFSGSGSGTDFTLKISRVEAEDVGVYYCFQGSHVPLTFGQGTKLEIK |  | binding result [3]: binds; binding result (Macaca fascicularis PD-1): binds |
